EP2848696A1, “Caspase-1 imaging probes” (Sanofi-Aventis Deutschland GmbH, priority 2013, dated 2015)

How the values were obtained:
Test in all cases: Kinetic characterization (Km and kcat/Km of probe hydrolysis)
Assay type in all cases: biochemical
Conditions in all cases: other: caspase-1 added to increasing probe concentrations; initial velocities; nonlinear regression
[1] = substrate: CCN(CC)c1ccc2cc(C(=O)NNC(=O)[C@H](CC(=O)O)NC(=O)[C@@H]3CCCN4C(=O)CC[C@H](NC(=O)c5cc6cc(Br)c(O)cc6oc5=O)C(=O)N34)c(=O)oc2c1
Protocol: (§1) Km and kcat/Km values were determined using standard methods (Kindermann et al., 2010; Rozman Pungercar et al., 2003). Caspase-1 was added to increasing concentrations of the probe and initial velocities of probe hydrolysis were calculated from the slopes of the lines of the fluorescence increase. Km and kcat (Vmax) values were then determined by nonlinear regression analysis using the Prism program.

[2] = substrate: CCN(CC)c1ccc2cc(C(=O)NNC(=O)[C@H](CC(=O)O)NC(=O)[C@@H]3CCCN4C(=O)CC[C@H](NC(=O)c5cc6ccc(O)cc6oc5=O)C(=O)N34)c(=O)oc2c1
Protocol: as §1

[3] = substrate: CCN(CC)c1ccc2cc(C(=O)NNC(=O)[C@H](CC(=O)O)NC(=O)[C@@H]3CCCN4C(=O)CC[C@H](NC(=O)c5cc6ccc(OC)cc6oc5=O)C(=O)N34)c(=O)oc2c1
Protocol: as §1

B1: Caspase-1 (Homo sapiens) (protein)
chain 1: NPAMPTSSGSEGNVKLCSLEEAQRIWKQKSAEIYPIMDKSSRTRLALIICNEEFDSIPRRTGAEVDITGMTMLLQNLGYSVDVKKNLTASDMTTELEAFAHRPEHKTSDSTFLVFMSHGIREGICGKKHSEQVPDILQLNAIFNMLNTKNCPSLKDKPKVIIIQACRGDSPGVVWFKD
chain 2: AIKKAHIEKDFIAFCSSTPDNVSWRHPTMGSVFIGRLIEHMQEYACSCDVEEIFRKVRFSFEQPDGRAQMPTTERVTLTRCFYLFPGH
**Q.** Which results are given for B1?
**A.** Km [1]: 5.9 µM µM; Km [2]: 6.5 µM µM; Km [3]: 4.2 µM µM
